# Patent US20260078398A1, “PLANTS GENETICALLY ENGINEERED FOR INCREASED WATER USE EFFICIENCY AND CARBON INTAKE AND METHODS FOR MAKING AND USING THEM” (The Regents of the University of California, priority 2022, published 2026)
# Residue numbers refer to the chain shown, from its start. Names and notes keep the numbering of the source.
# T1: His-HT1 (recombinant Arabidopsis HT1 protein kinase, wild type, with His tag)
# T1 chain: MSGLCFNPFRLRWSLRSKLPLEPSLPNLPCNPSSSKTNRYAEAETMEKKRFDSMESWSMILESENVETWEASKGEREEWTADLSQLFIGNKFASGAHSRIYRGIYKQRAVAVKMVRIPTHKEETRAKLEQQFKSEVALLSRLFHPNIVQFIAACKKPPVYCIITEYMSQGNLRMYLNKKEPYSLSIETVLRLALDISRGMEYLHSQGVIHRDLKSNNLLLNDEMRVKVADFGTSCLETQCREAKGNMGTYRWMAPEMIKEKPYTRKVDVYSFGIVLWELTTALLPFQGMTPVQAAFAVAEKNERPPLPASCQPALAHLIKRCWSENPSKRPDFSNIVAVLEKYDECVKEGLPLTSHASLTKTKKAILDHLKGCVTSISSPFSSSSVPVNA
# B1: HT1-K113W: kinase inactive HT1 mutant (protein)
# chain: T1 chain with K113W
# B2: HT1-G89R: recombinant HT1 protein kinase isoform with dominant G89R mutation (protein)
# chain: T1 chain with G89R
# B3: MPK12 (recombinant Arabidopsis MAP kinase MPK12) (protein)
# chain: MSGESSSGSTEHCIKVVPTHGGRYVQYNVYGQLFEVSRKYVPPIRPIGRGACGIVCAAVNSVTGEKVAIKKIGNAFDNIIDAKRTLREIKLLRHMDHENVITIKDIVRPPQRDIFNDVYIVYELMDTDLQRILRSNQTLTSDQCRFLVYQLLRGLKYVHSANILHRDLRPSNVLLNSKNELKIGDFGLARTTSDTDFMTEYVVTRWYRAPELLLNCSEYTAAIDIWSVGCILGEIMTGQPLFPGKDYVHQLRLITELVGSPDNSSLGFLRSDNARRYVRQLPRYPKQQFAARFPKMPTTAIDLLERMLVFDPNRRISVDEALGHAYLSPHHDVAKEPVCSTPFSFDFEHPSCTEEHIKELIYKESVKFNPDH
# B4: MPK12-K70R: kinase inactive MPK12 isoform (protein)
# chain: B3 chain with K70R
# B5: His-BdMPK5 (D90N), chill1 variant isoform (protein)
# chain: MRMEGGGAGPAAAAAAGGAHGLGEAQIKGTLTHGGRYVQYNVYGNLFEVSAKYVPPIRPVGRGACGIICAAINVQTREEVAIKKIGNAFNNQIDAKRTLREVKLLRHMNHENVISIKDIIRPPRRENFNDVYIVYELMDTDLHHLLRSNQPLTDDHCQYFLYQVLRGLKYVHSANVLHRDLRPSNLLLNAKCDLKIGDFGLARTTTETDFMMEYVVTRWYRAPELLLNCSEYTGAIDMWSVGCILGEIATREPLFPGKDYVHQLRLITELLGSPDDTSLGFLRSDNARRYVRSLPQYPKQQFRSRFPNMSSGAMDLLERMLVFDPNKRITVDEALCHPYLASLHEINDEPVCPAPFSFDFEQPSFTEEDIKELIWRESVKFNPEPIH
# B6: His-BdMPK5 (WT), recombinant Brachypodium distachyon BdMPK5 (protein)
# chain: B5 chain with N90D
# B7: CBC1-D253A: kinase inactive CBC1 isoform (protein, UniProt Q9SSA4 1-411, looked up, variant D253A)
# Serine/threonine-protein …: MKEKAESGGGVGYVRADQIDLKSLDEQLQRHLSKAWTMEKRKSLSDGEDNVNNTRHNQNNFGHRQLVFQRPLLGGGYSNNNNSSKNDIIRSTEVEKSRREWEIDPSKLIIKSVIARGTFGTVHRGIYDGQDVAVKLLDWGEEGHRSDAEIASLRAAFTQEVAVWHKLDHPNVTKFIGAAMGTSEMSIQTENGQMGMPSNVCCVVVEYCPGGALKSFLIKTRRRKLAFKVVIQLSLDLARGLSYLHSQKIVHRAVKTENMLLDKSRTLKIADFGVARLEASNPNDMTGETGTLGYMAPEVLNGSPYNRKCDVYSFGICLWEIYCCDMPYPDLSFSEVTSAVVRQNLRPEIPRCCPSSLANVMKRCWDANPEKRPEMEEVVAMLEAIDTSKGGGMIPPDQQQGCFCFRRHRGP
# Tests used:
# [1] = test system: CBC1; assay: HT1-dependent CBC1 kinase activation, in vitro phosphorylation and in-gel kinase assays; type: biochemical, Arabidopsis; settings: kinase inactive isoforms, histone as substrate
# Excerpt: A previous study reported that the HT1 kinase phosphorylates the CBC1 kinase in vitro (13). Whether this phosphorylation of CBC1 affects CBC1 activity remains unknown. We confirmed CBC1 phosphorylation by HT1 using recombinant His-HT1 and GST-CBC1 proteins by in vitro phosphorylation assays using radioactive ^32P-ATP (FIG. 5). Moreover, phosphorylation levels of histone, an artificial kinase substrate, were increased at the same time. […] In-gel kinase assays were pursued to test this hypothesis and provide direct evidence of HT1-dependent CBC1 kinase activation (FIG. 1A). […] We identified in vitro phosphorylation sites in CBC1 using mass spectrometry by analyzing recombinant CBC1 protein in the presence or absence of HT1 (FIG. 1C). We found two HT1-dependent phosphorylation sites (Thr-256 and Ser-280) that lie within or near the activation-loop of CBC1.
# FIG. 1. […] Histone was used as an artificial phosphorylation substrate of CBC1. • (C) Recombinant CBC1 proteins were incubated with or without HT1 and ATP, and CBC1 phosphorylation sites were identified by mass spectrometry. The red fonts indicate HT1-dependent phosphorylation sites. CBC1 autophosphorylation sites detected without HT1 addition are labeled in black fonts. […] CBB gels show loading controls.
# [2] = test system: MPK4/12, HT1 and CBC1 recombinant proteins; assay: in vitro phosphorylation assay: NaHCO3-dependent down-regulation of HT1-mediated CBC1 phosphorylation; type: biochemical, Arabidopsis; settings: isoform replaces wild type protein or is added; 20 mM NaHCO3 vs NaCl control, 30 min
# Procedure: We tested whether this HT1-mediated activation of CBC1 is inhibited by CO2/bicarbonate by adding NaHCO3 in in vitro phosphorylation reactions. […]
# FIG. 2. […] Histone was used as an artificial protein kinase substrate. • (B) MPK4, HT1 and CBC1 proteins were incubated with NaHCO3 at the indicated concentrations for 30 min, and in vitro phosphorylation assays were performed. • (C) CBC1 band intensities as shown in (B) were measured using IMAGEJ™, n=4 experiments, error bars show ±S.D. • (D) MPK4, HT1 and CBC1 proteins were incubated in reaction buffers adjusted at different pH (6.5 to 8.5) for 30 min, and in vitro phosphorylation assays were performed. • (E) CBC1 band intensities and the density-ratios of ‘+NaHCO3’ to ‘—NaHCO3’ (=+NaCl controls) for each pH condition
# FIG. 3. […] Ambient CO2 concentrations are indicated by the top bars. n=7 experiments, error bars show ±SEM. • (C) Recombinant HT1 (wild type, HT1-G89R or HT1-R173Q) and CBC1 proteins were incubated with MPK4 in the presence or absence of 20 mM NaHCO3 or 20 mM NaCl (−controls) for 30 min, and in vitro phosphorylation assays were performed. • (D) Recombinant MPK12, CBC1 and HT1 (WT or R102K) proteins were incubated with or without 20 mM NaHCO3 or 20 mM NaCl (−controls) for 30 min, and in vitro phosphorylation assays were performed. Histone was used as an artificial kinase substrate. • (E) HT1 (WT or A109V) proteins were used for in vitro phosphorylation assays. Proteins were incubated with or without 20 mM NaHCO3 or 20 mM NaCl (−controls) for 30 min. • (F) Stomatal conductances were analyzed using intact plants of Arabidopsis (Col-0 (WT), cbc1 cbc2, ht1-A109V and cbc1 cbc2 ht1-A109V). CO2 concentration changes were applied as indicated on top (p.p.m.). […]
# [3] = test system: MPK4 and HT1; assay: in vitro pull-down assay, His-HT1 with GST-MPK4; type: binding, Arabidopsis; settings: pull-down with or without 20 mM NaHCO3
# Procedure: We therefore investigated a possible binding between MPK4 and HT1 and the effect of HCO3^−.
# FIG. 4. […] CO2 concentration changes were applied as indicated on top (p.p.m.). n=6 experiments, error bars show ±SEM. • (J) Model of plant stomatal CO2 sensor and signaling (see text).
# FIG. 6. […] Precipitated proteins were washed with buffers supplemented with NaHCO3 at the indicated concentrations (0, 2 or 20 mM). See FIG. 4d for an independent experiment. To control for effects of Na^+, 20 mM NaCl (0 mM NaHCO3) for lanes 1 and 4 were included in the buffers; and 18 mM NaCl (2 mM NaHCO3) for lane 3 were included in buffer.
# [4] = biological target: T1, His-HT1 (recombinant Arabidopsis HT1 …)
molecule,measurement,setting,value
B1,HT1-dependent activation/phosphorylation of CBC1,[1],did not activate CBC1
B2,NaHCO3-mediated down-regulation of CBC1 phosphorylation/activity with the protein isoform in the reaction,[2],no NaHCO3-mediated inhibition of CBC1 activity
same,HCO3- dependent binding of HT1 isoform with MPK4,[3],disrupts the HCO3^−-dependent binding with MPK4
B3,"CBC1 and histone phosphorylation in vitro (HT1 + CBC1 + MPK12, 20 mM NaHCO3; FIG. 2A, n>6)",[4],"when MPK4 or MPK12 were added to the reaction, we found that the addition of NaHCO3, but not NaCl, inhibited both CBC1 phosphorylation and histone phosphorylation in vitro"
same,"HT1 kinase activity, in vitro phosphorylation assay with or without 20 mM NaHCO3 (FIG. 4B, n=3)",[4],"HT1 kinase activity was inhibited in response to NaHCO3, only in the presence of MPK12"
B4,NaHCO3-mediated down-regulation of CBC1 phosphorylation/activity with the protein isoform in the reaction,[2],retained the ability to mediate CO2/bicarbonate-induced CBC1 inhibition
B5,"CBC1 phosphorylation, in vitro phosphorylation assay with GST-CBC1, His-HT1 and His-BdMPK5 (D90N), with or without 20 mM NaHCO3 (n=2)",[4],The BdMPK5-D90N variant protein abrogated the high CO2/bicarbonate-mediated downregulation of CBC1 phosphorylation
B6,"CBC1 protein kinase activity, in vitro phosphorylation assay with GST-CBC1, His-HT1 and His-BdMPK5, with or without 20 mM NaHCO3 (n=2)",[4],HT1 and CBC1 together with the BdMPK5 protein showed a high CO2/bicarbonate-induced down-regulation of the CBC1 protein kinase activity
B7,HT1-dependent activation/phosphorylation of CBC1,[1],reduced phosphorylation level compared to wild type CBC1
